Here are results for 40 sequences from the nanobody polyreactivity screen of Harvey et al. (2022).

This series is described as follows: yeast display, Sf9 membrane polyspecificity reagent, FACS + sequencing; frameworks hold sequencing errors. An outline of the steps: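 Using colony PCR, genes from sorted yeast display clones were amplified, then sequenced on MiSeq at 2 × 250 and filtered by CDR length. The clones had been stained with 10% biotinylated, detergent-solubilized Sf9 membrane reagent for 1 hour at 4 °C and sorted by FACS into low and high (top ~1%) gates on anti-HA and streptavidin fluorescence. Polyreactivity labels come from the gate of origin.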
As to “QVQLVESGGALVQAGGSLRLSCAASGYIFPGNAMGWYRQAPGKEREVVAGITSSGTSTYYADSVKGRFTISRDNAKNTVYLQMNSLKQEDTAVYYCAADALWGTGSGFDYWGQGTQVTVSS”, the “polyreactivity (PSR sort gate)” value is recorded as “low polyreactivity”.

Turning to “QVQLVESGGALVQAGGSLRLSCAASRFTFTRYVMGWYSQAPGKERELVAAISINGGRTYYADSVKGRFTISRDNAKNTVYLQMNSLKPEDTAVYDCAAERYYWYTEMGYWGQGTQVTVSS”, the “polyreactivity (PSR sort gate)” value is listed as “high polyreactivity”.

For “QVQLVESGGALVQAGGSLRLSCSASGSTLPGYAMVWYRQAPGKERELVAGISTRGGNTYYADSVKGRFTISRDNAKNTVYGQLNSLNPEDTAVYYCATTSSWRYGYWGEGTQVTVSS”, the “polyreactivity (PSR sort gate)” value is “high polyreactivity”.

Take “QVQLVESGGALVQAGGSLRLSSAASGITFSRYAMGWYRQAPGKERELVARISSSGGSTNYADSVKGRFTISRDNAKNTVYLQMNSLKPEDTAVYYCAGATRGKVARRVTFDYWGQGTQVTVSS”: the “polyreactivity (PSR sort gate)” value is reported as “high polyreactivity”.

On to “QVQLVESGGALVQAGGSLRLTCAASGRIYTRYAMGWNRKATGKERELVAVITRSGGSTYYADSVKGRFTISRDNGKNTVYLQMNSLNPEVTAVYDCAAKYYGEMYYWGQGTQVTVSS”, for which the “polyreactivity (PSR sort gate)” value is reported as “low polyreactivity”.

On to “QVQLVESGGALVQAGGSLRLTCAYSGSTSYNNAMGWYRHAPGKERELYASLYMSAGSTYYADSVKGRFKISRDNEKNTVYLQMNSLKPEDTAVYYCAAESVAILGLVDPKGYGYWGQGTQVTVSS”, for which the “polyreactivity (PSR sort gate)” value is “low polyreactivity”.

In the case of “QVQLVESGGALVQEAGSLRLRCAASGSIFDYKGMRWSRPAPGKERELVAAITSSGGSTYYADSVKGRFSISRDNAKNTDYLQMNSLIPEVSAFYYCAVDILYFPASYATQPVDYWGQGTQVTVSS”, the “polyreactivity (PSR sort gate)” value is listed as “low polyreactivity”.

Consider “QVQLVESGGCIVQAGGSLRLSCAASGLNLDGYAMGWYRQAPGKERELVAAITRSGGRTYYADSVKGRFTISRDNANNTVYLQMNSLKPEDTAVYYCAALGWSVRYRYDYWGQGTQVTVSS”, for which the “polyreactivity (PSR sort gate)” value was “high polyreactivity”.

For “QVQLVESGGCIVQAGGSLRLSCAASGNIFAYNGKVWYRQAPGKERELVAAIRGSGTRTYYAESVKGRFTISRDNAKNTVYLHMNSLKPEDTAVYYCSARYFGTARTNYGYWGQGTQVTVSS”, the “polyreactivity (PSR sort gate)” value was “high polyreactivity”.

“QVQLVESGGCLFQAGGSLRLSCAASGNIFLYYAMGWYRQAPGKERELVADIDSSGASTYYADSVKGRFTISRDNAKNTGYLQMNSLIPEDTAVYDCDKDSNRYSYYSPYDSWGQGTQVTVSS”: the “polyreactivity (PSR sort gate)” value was “low polyreactivity”.

Consider “QVQLVESGGCLVPAGGSLRLSCAASGFIIDWYDMAWYRQAPGKERELVAAITRSAGRTYYADSVKGRFTISRDIAKITVYLQMNSLKPEDTAVYYCAARSSSAGGGDGYWGQGTQVTLSS”, for which the “polyreactivity (PSR sort gate)” value is recorded as “high polyreactivity”.

As for “QVQLVESGGCLVPAGGSLRLSGAASGSTYHFYAMGWYRHAQGKERELVASITSRGGNTHYADSVKGRFRISRDNAKNTVYFQMNSLKPEVTAVYSCAASGGWYGTYDYWGQGTQVTVSS”, the “polyreactivity (PSR sort gate)” value is “low polyreactivity”.

In the case of “QVQLVESGGCLVQAGCSLRLSCAASGSTLWWYDMGWYRQAPGKERELVAAINSGGSTNYADSVKGRFTISRDNAKNTVYLQMNSLKAEDTAVYYCNTDGEVTYDYWGQGTQVTVSS”, the “polyreactivity (PSR sort gate)” value is “low polyreactivity”.

For the sequence “QVQLVESGGCLVQAGGRLRLSCAASGRIFHDNGMGWYRQAPGKERELVAAISRGGSTYYADSVKGRFTISRDNAKNTVYLQMNSRKPEDTAVYYCNVDSFRYRHTGYCDTRYGYWGQGTQVTVSS”, the “polyreactivity (PSR sort gate)” value was “high polyreactivity”.

“QVQLVESGGCLVQAGGRLRLSCAASGSTFGRNAMGWYRQAPGKERELVAAISTSDGRTYYADSVKGRFTISRDNAKNTVYLQMNSLKPEDTAVYYCAADGETLPPRILGESEGDYWGQGTQVTVSS”: the “polyreactivity (PSR sort gate)” value is on record as “low polyreactivity”.

With “QVQLVESGGCLVQAGGSLRLICAASGFIFTPYAMGWYRQAPGKERELVAAIRNSDGSTYYADSVKRRFTISRDTAKHSVYLQMNSLKPEDTAVFYCAKRYRGEPGGTYGYWGQGTQVNVSS”, the “polyreactivity (PSR sort gate)” value is recorded as “high polyreactivity”.

For the sequence “QVQLVESGGCLVQAGGSLRLICAASGLIFTGNAMGWYRQAPGKERELVAAINYSGGSTYYADSVKWRFTISRDNAKNTVSLQLNSLKAEDTAVYYCAAGGKSRSYYWGQGTQVTVSS”, the “polyreactivity (PSR sort gate)” value was “high polyreactivity”.

Consider “QVQLVESGGCLVQAGGSLRLRCAASGFMFGSYAMGWYRQAPGKERELVAAISRRGSSTSYADSVKGRFTISRDNAKNTVYLQMNSLKPEDTAVYFCAPPYLKKWGYYFDGNYWGQGTQVTVSS”, for which the “polyreactivity (PSR sort gate)” value is “high polyreactivity”.

As for “QVQLVESGGCLVQAGGSLRLSCAASGFIFSEYAMGWYRQAPGKERELVVAIDVGGGSTYYADSVKGRFTISRDNAKNTVYLQMNSLKPEDTAVYYCAATQYGYWVPYQGFDYWGLGTQVTVSS”, the “polyreactivity (PSR sort gate)” value is “low polyreactivity”.

For the sequence “QVQLVESGGCLVQAGGSLRLSCAASGFIISSYVMGWYSQEPGKERELVAAITSGTSTYYADSVKGRFTFSRDNAKNTVYLQMNSLKPEDTAVYYCTADSYHTYYYWYDYWGQGTQVTVSS”, the “polyreactivity (PSR sort gate)” value is “low polyreactivity”.

Take “QVQLVESGGCLVQAGGSLRLSCAASGFTFLDYVMGWYRPAPGKERELVAVITVSGGSTYYADSVKGRFTISRDNAKNTVYLQMTSLKPEDTAVYYCNAYTIEYPFGDSYWYNYDYWGQGTQVTVSS”: the “polyreactivity (PSR sort gate)” value is on record as “high polyreactivity”.

Regarding “QVQLVESGGCLVQAGGSLRLSCAASGFTFRWYTMGWYRQAPGKERELVAAITGSGCTTYYADSVKGRFTISRDNAKNTVYLQMNSVKPEDTAVYYCAAQYFPSRGWSKGYDYWGHGTQVTVSS”, the “polyreactivity (PSR sort gate)” value was “high polyreactivity”.

For the sequence “QVQLVESGGCLVQAGGSLRLSCAASGFTFYAYTMGWYRQAPGKERELVAAITKTGSRTYYADSVKGRFTISRDNAKNTVYLQMNSLKPEDTAVYYCAAASYIRVKGISRYDSWGQGTQVTVSS”, the “polyreactivity (PSR sort gate)” value is recorded as “high polyreactivity”.

With “QVQLVESGGCLVQAGGSLRLSCAASGLTFADNAMGWYRQAPGKERELVATISYSGGSTYYADSVKGRFTISRDNAKNTVYLQMNSLKPEDTAVYYCAADGNSTGVYLDGGEGFAYDYWGQGSQVTVSS”, the “polyreactivity (PSR sort gate)” value is listed as “low polyreactivity”.

Take “QVQLVESGGCLVQAGGSLRLSCAASGLTFPKYSMGWYRQAPGKERELVARISYSGASTYYADSVKGRFTISRDNEKNTVYLHMIILKPEDTAVYYCDARIYRVYYVNFAPYYYWGQGTQVTVSS”: the “polyreactivity (PSR sort gate)” value was “high polyreactivity”.

Regarding “QVQLVESGGCLVQAGGSLRLSCAASGLTIAYYAMGWYRQAPGKERDLVAAITSSGTSTYYADSVKGRFTISRDNAKNTVYLQMNSLKPEDTAVYYCNKYPYFVYGDYGYWGQGTQVTVSS”, the “polyreactivity (PSR sort gate)” value is “high polyreactivity”.

On to “QVQLVESGGCLVQAGGSLRLSCAASGRIFGLYAMGWYRQAPGKEREFVAAISSSGSDTYYADSVKGRFTISRDNAKNTVYLQINSLKPDYTAVYYCAKRRLYLCFDYNSSAYEYGYWGQGTQVTVSS”, for which the “polyreactivity (PSR sort gate)” value is “low polyreactivity”.

Turning to “QVQLVESGGCLVQAGGSLRLSCAASGRIFGYYAMGWYRQEPWKERELVAAISYSGGTTYYADSVKGRFTISRDNAKNTVYLQMNSLKPEDTAVYYCAAESYTYYADYGYGYWGQGTQVSVSS”, the “polyreactivity (PSR sort gate)” value is “high polyreactivity”.

For the sequence “QVQLVESGGCLVQAGGSLRLSCAASGRIFIRYTMGWYRQAPGKERELVAAISKSGGRTYYADSVKGRFTISRDNAKNTDYLQMNSLKPEYTAVYDCNKDTDSQYSWGQGTQVTVSS”, the “polyreactivity (PSR sort gate)” value was “high polyreactivity”.

Turning to “QVQLVESGGCLVQAGGSLRLSCAASGRIFNYNAMGWYRQAPGKARELVAVITSGDSTNYADSVKGRFTISRDNAKNNVYLQMNSLKPEDTAVYYCAAEYYSIRYGPHSIEVYGMDYWGQGTQVTVSS”, the “polyreactivity (PSR sort gate)” value is listed as “low polyreactivity”.

For the sequence “QVQLVESGGCLVQAGGSLRLSCAASGRIFPGYAMVWYRQAPGKERELVAAISASGGSTYYADSVKGRFTISRDNAKNSVYFQIISLKPEDTAVYYCNAVYRLIRFDYWGQGSQVTVSS”, the “polyreactivity (PSR sort gate)” value is recorded as “high polyreactivity”.

For “QVQLVESGGCLVQAGGSLRLSCAASGRIFRRYAMGWYRQAPGKERELVASITCGGSSTSYADSVKGRFTISRDNAKNTVYLQMNSLKPEDTAVYYCAKGGVFGTYLNEYDYCGQGTQVTVSS”, the “polyreactivity (PSR sort gate)” value is listed as “low polyreactivity”.

Regarding “QVQLVESGGCLVQAGGSLRLSCAASGRNFGTYAMGWYRQATGKERELVAASTRGGTTYYADSVKGRFTISRDNAKNTVYLQMNSLTQEDTAVYYCATGPAIRYDYWGQGTQVTVSS”, the “polyreactivity (PSR sort gate)” value was “low polyreactivity”.

With “QVQLVESGGCLVQAGGSLRLSCAASGRTFYRYAMGWSRQAPGKERELVATISSRGTSTYYADSVKGRFTISRDNAKNTVYLQMNSLKPEDTAVYYCAVRGYAAGRHGYAYWGQGTQVTVSS”, the “polyreactivity (PSR sort gate)” value is given as “high polyreactivity”.

On to “QVQLVESGGCLVQAGGSLRLSCAASGRTIRENVMGWYIQAPGKERELVAAITGNDGTTYYADSVKGRFTISRDNAKNTVNLQMNSLKPEDTAVYYCASERGDSAYRKYDYWGQGTQVTVSS”, for which the “polyreactivity (PSR sort gate)” value was “low polyreactivity”.

With “QVQLVESGGCLVQAGGSLRLSCAASGSIFDSNPKGWYRQAPGKERELVAAITGSGTSTYYADSVKGRFTISRDNAKNTVYLQMNSLKPEDTALNYCAAAPEYLTDHDYWGQGTQVTVSS”, the “polyreactivity (PSR sort gate)” value was “low polyreactivity”.

Regarding “QVQLVESGGCLVQAGGSLRLSCAASGSIFGGNAMGWSRQAPGKEREFVAAITVSDGSTYYADSVKGRFTISRDNAKKTVYLQMNSLKPEDTAVYYCAAGGFYYPHYDYWGQGTQVTVSS”, the “polyreactivity (PSR sort gate)” value is on record as “low polyreactivity”.

As for “QVQLVESGGCLVQAGGSLRLSCAASGSIFQPYAMGWYRQEPGKEREIVAAISQSGTSTYYADSVNGRFTISRDNAKNTVYLQMNSLKPEVTAVYYCAAQCWHLDSQWQLYNYFYWGQGTQVTVSS”, the “polyreactivity (PSR sort gate)” value is “high polyreactivity”.

For the sequence “QVQLVESGGCLVQAGGSLRLSCAASGSIFYWYAMGWFRQAPGKARELVAAITWSGVSTYYADSVKGRFTISRDNAKNTVDLQMNSLKREDTAVYYCAALVFGYSVFPYSYWGQGTQVTVSS”, the “polyreactivity (PSR sort gate)” value was “high polyreactivity”.

In the case of “QVQLVESGGCLVQAGGSLRLSCAASGSIIWYYAMGWYRQAPGKERELVAAISTGGSTYYADSVKGRFTISRDNAKNTVYLQMNSLKPEDTAVYYCAAGAFGQILNYWGQGTQVTVSS”, the “polyreactivity (PSR sort gate)” value is “high polyreactivity”.
